Results from US20240115729A1, “COMPOSITIONS AND METHODS FOR TARGETED ANTIFIBROTIC THERAPY IN CHRONIC PANCREATITIS” (University of Virginia Patent Foundation, priority 2021, published 2024).

Tests used:
Experiment in all cases: IF colocalization (JACoP) of VT680 phage with marker, CP mouse pancreas sections
collagen IIIa (mouse) = collagen IIIa (mouse) (UniProt P08121)
F4/80 (mouse) = F4/80 (mouse) (UniProt Q61549)
[1] = target: carboxypeptidase A1 (CPA1) (mouse) (UniProt Q7TPZ8)
[2] = target: cytokeratin 7 (CK-7) (mouse) (UniProt Q9DCV7)
CD31 (mouse) = CD31 (mouse) (UniProt Q08481)
Chain of UniProt Q08481 (Q08481 18-727): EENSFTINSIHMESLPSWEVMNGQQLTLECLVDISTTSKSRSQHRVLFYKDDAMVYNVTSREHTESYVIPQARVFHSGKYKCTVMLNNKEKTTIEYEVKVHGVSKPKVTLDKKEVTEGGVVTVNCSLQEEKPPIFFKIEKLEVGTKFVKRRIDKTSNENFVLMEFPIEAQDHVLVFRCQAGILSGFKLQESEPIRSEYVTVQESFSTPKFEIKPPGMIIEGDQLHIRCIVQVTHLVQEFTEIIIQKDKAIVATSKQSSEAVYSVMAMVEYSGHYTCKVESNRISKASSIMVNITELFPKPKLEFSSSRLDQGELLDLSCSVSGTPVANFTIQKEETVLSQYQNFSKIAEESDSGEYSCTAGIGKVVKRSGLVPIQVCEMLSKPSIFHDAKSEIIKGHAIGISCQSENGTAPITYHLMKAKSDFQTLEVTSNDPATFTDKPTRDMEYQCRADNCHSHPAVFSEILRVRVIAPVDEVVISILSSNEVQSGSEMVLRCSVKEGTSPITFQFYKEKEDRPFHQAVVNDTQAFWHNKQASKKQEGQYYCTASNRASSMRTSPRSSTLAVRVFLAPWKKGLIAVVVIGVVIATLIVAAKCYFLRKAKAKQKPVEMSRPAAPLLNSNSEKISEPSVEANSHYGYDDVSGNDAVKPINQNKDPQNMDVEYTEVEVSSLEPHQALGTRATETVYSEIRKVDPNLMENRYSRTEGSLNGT

Chain of UniProt Q61549 (Q61549 28-931): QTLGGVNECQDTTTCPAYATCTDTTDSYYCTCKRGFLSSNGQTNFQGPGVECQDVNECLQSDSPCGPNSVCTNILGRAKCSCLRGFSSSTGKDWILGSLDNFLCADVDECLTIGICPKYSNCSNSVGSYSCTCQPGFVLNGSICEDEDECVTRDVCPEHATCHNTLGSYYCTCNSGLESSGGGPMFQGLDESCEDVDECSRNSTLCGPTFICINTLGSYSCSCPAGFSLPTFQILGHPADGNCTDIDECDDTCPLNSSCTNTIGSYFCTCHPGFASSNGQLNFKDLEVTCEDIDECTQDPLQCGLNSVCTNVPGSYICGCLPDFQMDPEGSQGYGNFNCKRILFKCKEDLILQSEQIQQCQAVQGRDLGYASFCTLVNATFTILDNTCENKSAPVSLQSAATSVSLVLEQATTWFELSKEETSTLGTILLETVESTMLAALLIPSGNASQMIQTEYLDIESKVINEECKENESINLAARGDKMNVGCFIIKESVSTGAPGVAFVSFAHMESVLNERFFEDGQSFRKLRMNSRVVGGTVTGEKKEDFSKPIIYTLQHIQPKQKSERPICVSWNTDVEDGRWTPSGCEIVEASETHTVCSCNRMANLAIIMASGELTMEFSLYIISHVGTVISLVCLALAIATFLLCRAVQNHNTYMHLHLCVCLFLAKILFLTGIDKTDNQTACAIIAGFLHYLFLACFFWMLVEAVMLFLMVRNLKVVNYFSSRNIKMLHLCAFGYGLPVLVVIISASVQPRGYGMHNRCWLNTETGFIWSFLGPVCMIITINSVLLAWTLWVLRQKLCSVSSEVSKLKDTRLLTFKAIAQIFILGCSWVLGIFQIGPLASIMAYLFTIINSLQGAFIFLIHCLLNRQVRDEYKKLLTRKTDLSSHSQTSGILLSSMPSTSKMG
Chain of UniProt Q9DCV7 (Q9DCV7 2-457): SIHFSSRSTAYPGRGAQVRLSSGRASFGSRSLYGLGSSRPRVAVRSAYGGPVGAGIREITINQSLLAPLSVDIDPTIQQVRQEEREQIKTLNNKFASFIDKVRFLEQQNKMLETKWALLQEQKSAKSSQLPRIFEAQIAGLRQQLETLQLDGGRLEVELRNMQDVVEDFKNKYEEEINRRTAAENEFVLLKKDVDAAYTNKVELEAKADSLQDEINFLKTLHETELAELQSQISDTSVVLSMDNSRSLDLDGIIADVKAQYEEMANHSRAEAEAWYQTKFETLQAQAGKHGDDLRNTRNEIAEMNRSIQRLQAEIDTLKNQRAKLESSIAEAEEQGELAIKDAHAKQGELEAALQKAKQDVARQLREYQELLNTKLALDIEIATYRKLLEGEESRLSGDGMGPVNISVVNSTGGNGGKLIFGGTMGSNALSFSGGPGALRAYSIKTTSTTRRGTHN
Chain of UniProt Q7TPZ8 (Q7TPZ8 111-419): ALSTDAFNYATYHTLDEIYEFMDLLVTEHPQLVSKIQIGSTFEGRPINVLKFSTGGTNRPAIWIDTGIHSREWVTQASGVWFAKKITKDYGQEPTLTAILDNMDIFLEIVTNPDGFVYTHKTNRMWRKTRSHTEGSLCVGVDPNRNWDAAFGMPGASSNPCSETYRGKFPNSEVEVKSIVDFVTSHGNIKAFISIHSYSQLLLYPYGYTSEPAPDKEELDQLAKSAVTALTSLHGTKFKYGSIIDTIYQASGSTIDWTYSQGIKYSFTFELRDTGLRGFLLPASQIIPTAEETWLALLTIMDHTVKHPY
Chain of UniProt P08121 (P08121 155-1219): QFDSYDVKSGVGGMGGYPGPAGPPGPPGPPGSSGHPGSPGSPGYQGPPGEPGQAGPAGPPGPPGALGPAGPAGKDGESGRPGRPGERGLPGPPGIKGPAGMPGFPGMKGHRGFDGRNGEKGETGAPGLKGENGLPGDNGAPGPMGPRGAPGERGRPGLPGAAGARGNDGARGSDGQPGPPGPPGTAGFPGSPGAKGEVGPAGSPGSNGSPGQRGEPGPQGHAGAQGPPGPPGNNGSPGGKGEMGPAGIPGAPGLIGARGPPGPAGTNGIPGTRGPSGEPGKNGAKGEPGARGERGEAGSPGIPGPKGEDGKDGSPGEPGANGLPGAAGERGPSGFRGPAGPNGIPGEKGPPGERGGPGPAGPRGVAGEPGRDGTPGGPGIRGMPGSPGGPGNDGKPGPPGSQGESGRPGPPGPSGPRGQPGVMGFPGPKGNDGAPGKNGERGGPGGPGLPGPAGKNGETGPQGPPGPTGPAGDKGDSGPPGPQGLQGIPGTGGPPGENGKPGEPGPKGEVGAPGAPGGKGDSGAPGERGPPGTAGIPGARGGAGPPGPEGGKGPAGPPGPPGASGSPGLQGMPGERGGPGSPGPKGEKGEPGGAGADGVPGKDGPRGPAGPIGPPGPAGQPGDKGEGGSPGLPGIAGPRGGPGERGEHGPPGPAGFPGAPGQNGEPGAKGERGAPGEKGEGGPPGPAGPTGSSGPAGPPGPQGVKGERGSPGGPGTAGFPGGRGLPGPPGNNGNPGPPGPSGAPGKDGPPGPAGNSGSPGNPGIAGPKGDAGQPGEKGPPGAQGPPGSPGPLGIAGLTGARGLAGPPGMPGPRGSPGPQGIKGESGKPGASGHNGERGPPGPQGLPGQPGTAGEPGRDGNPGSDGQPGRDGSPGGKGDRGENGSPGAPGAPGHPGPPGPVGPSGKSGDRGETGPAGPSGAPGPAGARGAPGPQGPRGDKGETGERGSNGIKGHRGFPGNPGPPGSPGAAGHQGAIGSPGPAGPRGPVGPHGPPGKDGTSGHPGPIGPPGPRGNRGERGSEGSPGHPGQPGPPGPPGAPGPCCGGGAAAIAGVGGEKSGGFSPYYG

Row | Substance | mean Manders' correlation coefficient (MCC), fraction of phage overlapping cell marker (collagen IIIa (mouse)) | mean Manders' correlation coefficient (MCC), fraction of phage overlapping cell marker (F4/80 (mouse)) | mean Manders' correlation coefficient (MCC), fraction of phage overlapping cell marker [1] | mean Manders' correlation coefficient (MCC), fraction of phage overlapping cell marker [2] | mean Manders' correlation coefficient (MCC), fraction of phage overlapping cell marker (CD31 (mouse))
1 | HPYSPLR (SEQ ID NO: 11) phage clone (peptide) | 0.27 | 0.41 | 0.25 | 0.08 | 0.35
2 | KTYVPTT (SEQ ID NO: 14) phage clone (peptide) | 0.23 | 0.31 | 0.26 | 0.06 | 0.2
3 | MDLSLKP (SEQ ID NO: 19) phage clone (peptide) | – | 0.46 | 0.31 | 0.06 | 0.2
4 | MNSIAIP (SEQ ID NO: 20) phage clone (peptide) | 0.34 | 0.37 | 0.63 | 0.05 | 0.24
